The target in one data set is SHP2-C SH2. Description: SH2 binding enrichment of the phosphorylated peptide, bacterial display (enrichment ratio); higher = better substrate or ligand; peptides without Tyr show the background.
Another data set has as its target Grb2 SH2 (UniProt P62993). The description is as above.
A further data set concerns the target c-Src SH2. The description is as above.
A further data set has as its target Hck (UniProt P08631). Description: phosphorylation enrichment, bacterial display (enrichment ratio); higher = better substrate or ligand; peptides without Tyr show the background.
Another data set has as its system Fer (mouse). The description is as above.
The next data set deals with EPHB2 (UniProt P29323). Described as above.
In a further data set the target is MERTK (UniProt Q12866). Described as above.
MERTK, sequence (Q12866 whole entry, looked up): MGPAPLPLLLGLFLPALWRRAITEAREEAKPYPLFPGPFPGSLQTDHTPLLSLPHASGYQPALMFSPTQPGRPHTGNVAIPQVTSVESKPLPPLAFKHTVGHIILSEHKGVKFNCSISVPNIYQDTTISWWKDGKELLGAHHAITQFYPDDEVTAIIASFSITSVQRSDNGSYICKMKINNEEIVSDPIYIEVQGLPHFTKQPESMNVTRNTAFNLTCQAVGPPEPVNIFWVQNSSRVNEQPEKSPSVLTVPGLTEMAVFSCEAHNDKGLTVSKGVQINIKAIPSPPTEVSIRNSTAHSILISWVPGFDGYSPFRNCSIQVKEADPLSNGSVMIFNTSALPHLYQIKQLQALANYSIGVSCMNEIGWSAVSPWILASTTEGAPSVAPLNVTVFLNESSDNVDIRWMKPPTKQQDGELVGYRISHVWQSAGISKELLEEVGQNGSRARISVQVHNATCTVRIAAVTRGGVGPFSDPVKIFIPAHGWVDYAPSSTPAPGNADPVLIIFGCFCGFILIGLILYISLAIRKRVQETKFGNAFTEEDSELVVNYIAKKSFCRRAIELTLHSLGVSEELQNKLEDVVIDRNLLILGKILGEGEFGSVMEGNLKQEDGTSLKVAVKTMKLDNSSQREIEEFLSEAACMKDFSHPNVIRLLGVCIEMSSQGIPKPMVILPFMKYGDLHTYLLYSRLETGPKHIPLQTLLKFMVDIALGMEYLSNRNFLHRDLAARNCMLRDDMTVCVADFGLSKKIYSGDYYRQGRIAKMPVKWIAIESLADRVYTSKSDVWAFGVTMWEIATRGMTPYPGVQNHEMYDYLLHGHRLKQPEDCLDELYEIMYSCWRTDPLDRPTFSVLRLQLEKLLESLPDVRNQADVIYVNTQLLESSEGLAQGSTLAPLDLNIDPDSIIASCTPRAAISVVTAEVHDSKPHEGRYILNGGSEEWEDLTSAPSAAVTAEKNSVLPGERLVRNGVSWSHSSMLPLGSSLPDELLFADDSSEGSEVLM
The next data set has as its target FGFR3 (UniProt P22607). The description is as above.
A further data set has as its target FGFR1 (UniProt P11362). The description is as above.
For a further data set, the system named is c-Src. The data set is described as above.
In another data set the test system is c-Abl (mouse). The data set is described as above.
A further data set has as its target Fes (UniProt P07332). The description is as above.
A further data set concerns the target Fyn (UniProt P06241). The description is as above.
Another data set has as its target Jak2 (UniProt O60674). The description is as above.
The next data set concerns the target EPHB1 (UniProt P54762). Described as above.
The subject of a further data set is AncSZ. The data set is described as above.
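Wherever SH2 binding enrichment of the phosphorylated peptide, bacterial display is given: peptide library displayed on the E. coli surface as eCPX fusions, selected cells deep-sequenced, score is each peptide's frequency after selection divided by its frequency in the input.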
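Wherever phosphorylation enrichment, bacterial display is given: 11-residue human phosphosite peptides and single-mutation variants displayed on the E. coli surface, counted by deep sequencing, each peptide's frequency after selection divided by its frequency in the unselected input library; frequency after pTyr selection over input frequency; kinase dosed for 20-30% of maximal phosphorylation in three min.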

Fyn, sequence (P06241 whole entry, looked up): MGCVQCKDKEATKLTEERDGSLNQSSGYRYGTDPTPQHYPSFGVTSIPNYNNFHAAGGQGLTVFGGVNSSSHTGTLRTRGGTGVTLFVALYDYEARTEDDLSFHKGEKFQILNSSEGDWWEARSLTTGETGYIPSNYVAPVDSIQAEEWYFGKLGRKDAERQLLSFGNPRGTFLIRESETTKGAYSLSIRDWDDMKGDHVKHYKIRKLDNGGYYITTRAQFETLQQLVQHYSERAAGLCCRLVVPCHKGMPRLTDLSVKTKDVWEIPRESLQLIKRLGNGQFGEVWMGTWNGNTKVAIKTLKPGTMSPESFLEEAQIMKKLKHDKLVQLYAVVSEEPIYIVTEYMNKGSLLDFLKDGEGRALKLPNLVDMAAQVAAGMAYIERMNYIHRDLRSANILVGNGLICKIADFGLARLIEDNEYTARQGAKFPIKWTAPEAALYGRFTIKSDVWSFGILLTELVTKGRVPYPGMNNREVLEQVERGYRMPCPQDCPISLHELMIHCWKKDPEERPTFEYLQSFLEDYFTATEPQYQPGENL
EPHB1, sequence (P54762 whole entry, looked up): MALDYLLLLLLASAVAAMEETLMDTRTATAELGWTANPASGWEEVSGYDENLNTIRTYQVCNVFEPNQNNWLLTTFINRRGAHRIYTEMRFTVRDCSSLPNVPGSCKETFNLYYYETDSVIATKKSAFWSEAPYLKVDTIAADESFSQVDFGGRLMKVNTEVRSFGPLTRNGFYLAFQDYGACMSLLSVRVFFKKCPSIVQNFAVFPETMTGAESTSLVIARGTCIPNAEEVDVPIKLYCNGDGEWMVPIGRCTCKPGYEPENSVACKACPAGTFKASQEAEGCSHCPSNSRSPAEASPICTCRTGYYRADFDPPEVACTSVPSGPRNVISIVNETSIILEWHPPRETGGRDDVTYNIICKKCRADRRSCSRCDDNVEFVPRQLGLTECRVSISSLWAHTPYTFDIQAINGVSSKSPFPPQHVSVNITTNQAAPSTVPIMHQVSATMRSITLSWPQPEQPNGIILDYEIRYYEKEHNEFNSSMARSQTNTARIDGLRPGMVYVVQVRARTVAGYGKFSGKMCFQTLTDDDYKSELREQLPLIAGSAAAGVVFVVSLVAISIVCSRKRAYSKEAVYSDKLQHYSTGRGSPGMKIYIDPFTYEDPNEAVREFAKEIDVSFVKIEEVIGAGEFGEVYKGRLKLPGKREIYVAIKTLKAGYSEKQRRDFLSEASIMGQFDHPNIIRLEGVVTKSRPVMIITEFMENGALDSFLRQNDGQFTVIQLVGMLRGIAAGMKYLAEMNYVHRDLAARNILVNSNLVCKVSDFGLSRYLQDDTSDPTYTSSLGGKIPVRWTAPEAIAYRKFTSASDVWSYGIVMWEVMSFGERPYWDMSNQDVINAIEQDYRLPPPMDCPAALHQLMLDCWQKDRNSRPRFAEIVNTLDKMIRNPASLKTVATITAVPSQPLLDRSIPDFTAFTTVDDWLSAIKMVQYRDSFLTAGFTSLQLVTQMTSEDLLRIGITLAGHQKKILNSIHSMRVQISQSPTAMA
Jak2, sequence (O60674 whole entry, looked up): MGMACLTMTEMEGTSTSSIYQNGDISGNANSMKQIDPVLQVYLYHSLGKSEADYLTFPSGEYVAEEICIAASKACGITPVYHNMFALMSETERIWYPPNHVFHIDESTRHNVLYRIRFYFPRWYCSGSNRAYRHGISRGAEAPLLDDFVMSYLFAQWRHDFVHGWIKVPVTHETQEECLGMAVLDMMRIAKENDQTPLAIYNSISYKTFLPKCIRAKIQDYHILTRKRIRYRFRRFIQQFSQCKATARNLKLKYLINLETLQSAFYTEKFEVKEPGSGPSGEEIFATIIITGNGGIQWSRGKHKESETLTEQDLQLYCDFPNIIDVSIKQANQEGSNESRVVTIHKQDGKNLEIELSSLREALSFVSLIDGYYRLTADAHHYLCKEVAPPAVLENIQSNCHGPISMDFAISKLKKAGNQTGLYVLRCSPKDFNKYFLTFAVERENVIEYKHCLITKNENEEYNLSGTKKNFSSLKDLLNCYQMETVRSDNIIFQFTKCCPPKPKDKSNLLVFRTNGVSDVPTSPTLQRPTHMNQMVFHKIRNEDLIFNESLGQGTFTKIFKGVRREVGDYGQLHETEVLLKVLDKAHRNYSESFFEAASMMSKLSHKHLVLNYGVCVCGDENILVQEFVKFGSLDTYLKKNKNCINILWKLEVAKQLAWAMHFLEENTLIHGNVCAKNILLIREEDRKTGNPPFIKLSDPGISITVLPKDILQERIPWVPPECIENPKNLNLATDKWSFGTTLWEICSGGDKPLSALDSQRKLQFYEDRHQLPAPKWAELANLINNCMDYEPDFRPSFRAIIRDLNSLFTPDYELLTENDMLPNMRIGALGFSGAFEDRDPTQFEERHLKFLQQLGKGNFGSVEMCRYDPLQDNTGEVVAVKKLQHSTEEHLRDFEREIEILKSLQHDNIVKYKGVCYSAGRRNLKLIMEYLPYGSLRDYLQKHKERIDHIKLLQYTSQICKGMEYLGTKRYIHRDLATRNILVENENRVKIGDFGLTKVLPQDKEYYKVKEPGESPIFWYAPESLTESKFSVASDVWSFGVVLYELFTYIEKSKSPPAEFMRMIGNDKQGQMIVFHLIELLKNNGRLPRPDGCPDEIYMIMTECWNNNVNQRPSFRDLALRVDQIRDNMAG
FGFR1, sequence (P11362 whole entry, looked up): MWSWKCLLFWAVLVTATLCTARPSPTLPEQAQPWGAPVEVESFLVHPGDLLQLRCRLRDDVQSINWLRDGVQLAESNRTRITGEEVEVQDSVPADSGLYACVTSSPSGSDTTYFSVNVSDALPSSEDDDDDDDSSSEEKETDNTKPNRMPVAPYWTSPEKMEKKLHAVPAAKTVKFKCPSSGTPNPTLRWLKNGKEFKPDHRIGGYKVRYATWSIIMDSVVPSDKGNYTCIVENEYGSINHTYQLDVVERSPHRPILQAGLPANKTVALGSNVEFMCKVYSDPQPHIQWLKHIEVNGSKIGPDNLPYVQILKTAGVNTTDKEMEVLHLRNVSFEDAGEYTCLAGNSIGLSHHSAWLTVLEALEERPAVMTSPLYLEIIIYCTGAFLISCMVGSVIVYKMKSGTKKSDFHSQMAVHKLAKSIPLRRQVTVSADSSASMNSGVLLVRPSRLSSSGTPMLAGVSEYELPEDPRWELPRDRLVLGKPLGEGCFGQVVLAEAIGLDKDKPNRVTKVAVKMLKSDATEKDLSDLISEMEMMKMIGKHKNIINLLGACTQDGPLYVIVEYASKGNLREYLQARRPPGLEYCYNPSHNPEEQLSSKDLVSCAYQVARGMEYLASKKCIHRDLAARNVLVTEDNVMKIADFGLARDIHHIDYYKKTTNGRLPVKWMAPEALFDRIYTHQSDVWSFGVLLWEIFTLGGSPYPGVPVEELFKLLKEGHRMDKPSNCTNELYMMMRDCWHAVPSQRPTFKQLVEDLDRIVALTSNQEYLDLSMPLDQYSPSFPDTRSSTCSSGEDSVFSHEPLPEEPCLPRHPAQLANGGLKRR
Hck, sequence (P08631 whole entry, looked up): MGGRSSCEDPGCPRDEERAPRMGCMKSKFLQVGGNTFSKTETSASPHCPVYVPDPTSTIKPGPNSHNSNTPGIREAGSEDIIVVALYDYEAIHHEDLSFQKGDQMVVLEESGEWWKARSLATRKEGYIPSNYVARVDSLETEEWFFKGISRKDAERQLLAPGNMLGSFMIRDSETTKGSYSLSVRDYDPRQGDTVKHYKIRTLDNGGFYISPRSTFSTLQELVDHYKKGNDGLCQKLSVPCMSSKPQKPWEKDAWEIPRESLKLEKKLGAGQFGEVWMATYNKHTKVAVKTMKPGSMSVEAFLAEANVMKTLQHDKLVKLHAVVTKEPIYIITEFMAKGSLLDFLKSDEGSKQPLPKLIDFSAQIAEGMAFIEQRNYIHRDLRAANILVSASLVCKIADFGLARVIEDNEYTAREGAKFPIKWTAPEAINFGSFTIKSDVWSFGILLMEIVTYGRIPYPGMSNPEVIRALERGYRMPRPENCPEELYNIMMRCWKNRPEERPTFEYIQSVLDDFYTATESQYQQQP

As to YRTGHYLCNAC [GATA1_Y223_D218Y], the figures for the SH2 binding enrichment with SHP2-C SH2, with Grb2 SH2 and with c-Src SH2 were 1.12, 1.01 and 0.968, respectively. Also, the phosphorylation enrichment in the data set with Hck came to 0.376; in the data set with Fer (mouse), 0.271; in the data set with EPHB2, 0.415; with MERTK, 0.355; with FGFR3 it was 0.41; with FGFR1 it was 0.412. For the same sequence, the phosphorylation enrichment in the data set with c-Src is 0.31; with c-Abl (mouse), 0.524; in the data set with Fes, 0.506; in the data set with Fyn, 0.383; in the data set with Jak2, 0.424; with EPHB1 it was 0.341. For the same sequence, in the data set with AncSZ, the phosphorylation enrichment was found to be 0.477.
For YSDPSYVKQME [CDC5L_Y464], the SH2 binding enrichment with SHP2-C SH2 is 0.608; with Grb2 SH2, 0.8; with c-Src SH2 it was 1.05. The phosphorylation enrichment is 0.593 with Hck; 0.409 in the data set on Fer (mouse); 0.57 with EPHB2; 0.578 with MERTK; 0.716 with FGFR3; 0.985 with FGFR1. In addition, the phosphorylation enrichment was found to be 0.473 in the data set with c-Src; 0.537 in the data set on c-Abl (mouse); 0.817 in the data set with Fes; 0.434 with Fyn; 0.557 with Jak2; 0.392 in the data set with EPHB1. For the same sequence, in the data set with AncSZ, the phosphorylation enrichment was determined as 1.1.
Consider YVFSFYHAFSG [ACTN4_Y265_S262F], for which the SH2 binding enrichment with SHP2-C SH2 was determined as 1.23; with Grb2 SH2, 1.19; with c-Src SH2, 0.889. The phosphorylation enrichment worked out at 0.835 in the data set with Hck; 0.69 in the data set with Fer (mouse); 0.825 with EPHB2; 3.14 in the data set with MERTK; 1.13 with FGFR3; 0.921 in the data set with FGFR1. For the same sequence, the phosphorylation enrichment worked out at 0.964 in the data set with c-Src; 1.1 in the data set with c-Abl (mouse); 1.43 in the data set with Fes; 0.692 in the data set with Fyn; 1.44 with Jak2; 1.15 with EPHB1. In addition, the phosphorylation enrichment in the data set on AncSZ was 1.37.
